Reference: PMC10869273 (Nature Biotechnology, 2023)
Numbering of substitutions follows the chain as printed. Names and notes keep the numbering of the source.

What was measured:
[1] = target: SARS-CoV-2 Omicron BA.1 receptor-binding domain (RBD) (SARS-CoV-2 Omicron BA.1, strain, biotin on the AviTag (expressed in the presence of BirA)); test: BLI; conditions: both partners purified
[2] = target: SARS-CoV-2 Beta-variant Spike with six stabilizing proline substitutions (S-6P) (SARS-CoV-2 Beta variant (B.1.351), strain)

B1: best design of C143, IgG (antibody, V domains shown)
VH: EVQLVESGGGLVQPGGSLRLSCAASGFSVSTKYMTWVRQAPGKGLEWVSVLYSGGSDYYADSVKGRFTISRDNSKNALYLQMNSLRVEDTGVYYCARDSSEVRDHPGHPGRSVGAFDIWGQGTMVTVSS
VL: QSALTQPASVSGSPGQSITISCTGTSNDVGSYNLVSWYQQYPGKAPKLLIFEVTKRSSGISNRFSGSKSGNTASLTISGLQGEDEADYYCCSYAGASTFVFGGGTKLTVL
fold improvement in apparent Kd over wild-type [1]: 3.8 fold

B2: REGN10987 VH R16G-V108D (antibody, V domains shown)
VH: QVQLVESGGGVVQPGGSLRLSCAASGFTFSNYAMYWVRQAPGKGLEWVAVISYDGSNKYYADSVKGRFTISRDNSKNTLYLQMNSLRTEDTAVYYCASGSDYGDYLLDYWGQGTLVTVSS
VL: QSALTQPASVSGSPGQSITISCTGTSSDVGGYNYVSWYQQHPGKAPKLMIYDVSKRPSGVSNRFSGSKSGNTASLTISGLQSEDEADYYCNSLTSISTWVFGGGTKLTVL
binding result [2]: binds

B3: another design of REGN10987 (5.1-fold improvement for the Omicron BA.1 RBD), Fab (Fab, V domains shown)
VH: B2 VH with D108V
VL: B2 VL with N91C
fold improvement in Fab Kd over wild-type [1]: 5.1 fold
